Results on one molecule are retold here after patent CN116355095A.

Test [1] has as its target T1, CHO-K1-T1001细胞表达的人TIGIT (human) (UniProt Q495A1).
T1 sequence (looked up): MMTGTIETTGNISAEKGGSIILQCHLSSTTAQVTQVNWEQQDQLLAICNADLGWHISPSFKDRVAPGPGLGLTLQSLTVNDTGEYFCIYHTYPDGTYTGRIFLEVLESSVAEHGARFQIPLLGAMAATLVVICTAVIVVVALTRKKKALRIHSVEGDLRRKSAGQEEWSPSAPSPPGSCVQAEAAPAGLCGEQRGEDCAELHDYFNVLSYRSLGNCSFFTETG
Nature of the test: cell ELISA on fixed CHO-K1-T1001 cells; reference Ref1. For orientation: An ELISA detects its analyte on a solid surface through an enzyme-linked reagent.

The target of test [2] is 人TIGIT-hFc (human) (UniProt Q495A1). Nature of the test: blocking ELISA: Bio-CD155 on coated TIGIT-hFc; reference Ref1.

B1: IF091 (鼠源单克隆抗体mab22) (antibody, V domains shown)
VH: EVKLVESGGGLVQPGGSLKLSCVASGFTFSSYTMSWVRQTPEKRLELVAEISSSGGSTYYPDTVKGRFTISRDNAKNTLFLQMNSLKSEDTAMYYCARPGLGAWFAYWGQGTLVTVSA
VL: DVLMTQTPLSLPVSLGDQASISCRSSQSIVHNSGNTYLEWYLQKPGQSPKLLIYKVSNRFSGVPDRFSGSGSGTDFTLKISRVEAEDLGIYYCFQFSHVPRTFGGGTKLEIK
For the molecule B1, the fold better than Ref1 (结合活性) in test [1] turned out to be 1.73 fold. In test [2], this molecule returned a fold better than Ref1 (阻断活性) of 1.83 fold.
